Source: patent US10792311B2, “Stimulation of ovarian follicle development and oocyte maturation” (The Board of Trustees of the Leland Stanford Junior …, priority 2011, dated 2020)

Experiments:
preantral follicles = assay: Preantral follicle culture; assay type: cell-based, mice; details: preantral follicles of day 13 mice, four days
Source text: CNP treatment promoted the growth of preantral follicles and cultured ovarian explants: Preantral follicles (125-135 um in diameter) were isolated from ovaries of mice at day 13 of age and treated with different hormones for four days with daily monitoring of follicle diameters. […] In contrast, treatment with ANP was ineffective.
Dissection follicles of different sizes and culturing of preantral follicles: For RT-PCR analyses, early secondary follicles of 90-140 um in diameters were isolated from mice at day 13 of age whereas antral follicles (300-400 um in diameter) were isolated from prepubertal mice at day 23 of age. Preovulatory follicles (500-600 um in diameter) were isolated from prepubertal mice treated with eCG (5 IU). For follicle cultures, preantral follicles (125-145 um in diameter) were isolated from mice at day 13 of age and cultured individually in 96 well plates containing alpha-MEM (100 ul/well) with penicillin and streptomycin together with insulin, transferrin and selenium. […] The media were changed every two days and follicle growth was monitored daily by measuring follicle diameters.

ovaries from day 10 mice [1] = assay: Ovarian explant cultures treated with CNP and/or FSH; assay type: cell-based
Description: Ovarian explant cultures: Ovaries from day 10 mice were placed on culture plate inserts (Millipore, Bedford, Mass.) and cultured in 400 μl of DMEM/F12 containing 0.1% BSA (Sigma), 0.1% Albumax II, insulin-transferrin-selenium, 0.05 mg/ml L-ascorbic acid and penicillin-streptomycin under the membrane insert to cover ovaries with a thin layer of medium. […] Some explants were also treated with a pan-specific protein kinase G inhibitor, Rp-8-Br-PET-cGMPS (BioLog, Bremen, Germany). At the end of culture, ovaries were fixed in Bouin's solution, paraffin embedded, and cut into continuous sections before staining with hematoxylin and eosin.

ovaries from day 10 mice [2] = assay: Ovarian explant cultures treated with R-spondin2 and/or FSH; assay type: cell-based
Description: Ovarian explant cultures: Ovaries from day 10 mice were placed on culture plate insert (Millipore, Bedford, Mass.) and cultured in 400 μl of DMEM/F12 (Gibco) containing 0.1% BSA (Sigma), 0.1% Albumax II (Gibco), insulin-transferrin-selenium (Gibco), 0.05 mg/ml L-ascorbic acid (Sigma) and penicillin-streptomycin (Gibco) under the membrane insert to cover ovaries with a thin layer of medium. […] Explants treated with non-immune IgG or boiled (100 C, 15 min) R-spondin2 antibodies served as negative controls. At the end of culture, ovaries were fixed in Bouin's solution, paraffin embedded, and cut into continuous sections before staining with hematoxylin and eosin. Only follicles with clearly stained oocyte nucleus were counted to prevent recounting of the same follicle.

[3] = system: somatic cells obtained from day 10 ovaries; assay: Cell proliferation (MTS) assay of ovarian somatic cells; assay type: cell-based, mice; details: for MTS activity (viable cell number): agent alone, 2 days
Description: Cell proliferation assay: Ovaries obtained from day 10 mice were digested with collagenase I, DNase, and trypsin. After centrifuging at 270×g for 10 min., cell pellet was washed and plated in a 96-well plate (BD Falcon, Franklin Lakes, N.J.) in McCoy's 5a medium (Gibco BRL, Grand Island, N.Y.) containing 4 mg/ml BSA (Sigma Aldrich Chemicals, St. Louis, Mo.), penicillin-streptomycin (Gibco) and sodium pyruvate (Gibco) for 3 h at 37 C. After washing twice with PBS to remove floating oocytes, cells were cultured in serum-free McCoy's 5a medium containing different factors for 48 h. MTS (3-(4,5-dimethylthiazol-2-yl)-5-(3-carboxymethoxyphenyl)-2-(4-sulfophenyl)-2H-tetrazolium) assay was performed using Cell Titer 96 Aqueous One Solution Cell Proliferation Assay (Promega, Madison, Wis.) by adding the substrate for 2 h before measuring absorbance at 490 nm.

[4] = system: canonical Wnt signaling pathway; assay: TCF-luciferase assay in cultured ovarian somatic cells; assay type: cell-based; details: somatic cells of day 10 mice; for TCF-luciferase activity: agent alone
Description: TCF-luciferase assay: Ovarian somatic cells from day 10 mice were cultured overnight at 37 C in McCoy's 5a medium containing 10% fetal bovine serum (FBS; Gibco) before evaluation of Wnt signaling based on the TCF-luciferase assay. Cells were transfected with 1 μg of pTOP FLASH or pFOP FLASH plasmid together with 0.1 μg of pRL-TK plasmid using lipofectamine 2000 (Invitrogen, Carlsbad, Calif.) for 6 h. […] Luciferase activity expressed as relative light unit was determined using a Dual Luciferase Reporter Assay Kit (Promega) with a luminometer (Bio-Rad).
Luciferase activity was measured as an index of Wnt signaling. […] To estimate the number of viable cells, cells were also cultured with increasing doses of R-spondin2 with or without Wnt3a before measurement of mitochondrial reductase (MTS) activity.

intestinal stem cell = details: 100 μg/adult mice; cited from earlier work
[5] = treatment with R-spondin2 and/or FSH

Question: Which “Follicle size (diameter)” value (preantral follicles) does the source give for Nc1nc2c(nc(Br)n2[C@@H]2O[C@@H]3COP(=O)(O)O[C@H]3[C@H]2O)c(=O)[nH]1 [8-bromo-cGMP, reference compound] here?
Answer: induced

Question: With O=c1c2nc(Br)n([C@@H]3O[C@@H]4CO[P@@](O)(=S)O[C@H]4[C@H]3O)c2nc2[nH]c(-c3ccccc3)cn12 [Rp-8-Br-PET-cGMPs, Rp-8-Br-PET-cGMPS, reference compound] as the molecule, how does the “Effect on stimulatory effects of CNP on ovarian weight” value (ovaries from day 10 mice [1]; explant culture) read?
Answer: blocked the stimulatory effects of CNP

Question: What about the “Effect on effects of a high dose of FSH on ovarian weight” value (ovaries from day 10 mice [1]; explant culture, FSH 100 ng/ml) of the same molecule?
Answer: partially suppressed the effects of a high dose of FSH

Question: With CC[C@H](C)[C@@H]1NC(=O)[C@H](CCCNC(=N)N)NC(=O)[C@H](CC(=O)O)NC(=O)[C@H](CCSC)NC(=O)[C@H](CCCNC(=N)N)NC(=O)CNC(=O)CNC(=O)[C@H](Cc2ccccc2)NC(=O)[C@@H](NC(=O)[C@H](CO)NC(=O)[C@H](CO)NC(=O)[C@H](CCCNC(=N)N)NC(=O)[C@H](CCCNC(=N)N)NC(=O)[C@H](CC(C)C)NC(=O)[C@@H](N)CO)CSSC[C@@H](C(=O)N[C@@H](CC(N)=O)C(=O)N[C@@H](CO)C(=O)N[C@@H](Cc2ccccc2)C(=O)N[C@@H](CCCNC(=N)N)C(=O)N[C@@H](Cc2ccc(O)cc2)C(=O)O)NC(=O)CNC(=O)[C@H](CC(C)C)NC(=O)CNC(=O)[C@H](CO)NC(=O)[C@H](CCC(N)=O)NC(=O)[C@H](C)NC(=O)CNC1=O [ANP, reference compound] as the molecule, how does the “Ovarian weights of explants” value (ovaries from day 10 mice [1]; day 10 ovaries, 4 days culture) read?
Answer: not

Question: And the “Follicle size (diameter)” value (preantral follicles)?
Answer: ineffective

B1: R-spondin2: secreted protein that regulates beta-catenin; oocyte-derived paracrine factor; recombinant human R-spondin2 (protein, UniProt Q6UXX9 22-243, looked up)
R-spondin-2: QGNRWRRSKRASYVSNPICKGCLSCSKDNGCSRCQQKLFFFLRREGMRQYGECLHSCPSGYYGHRAPDMNRCARCRIENCDSCFSKDFCTKCKVGFYLHRGRCFDECPDGFAPLEETMECVEGCEVGHWSEWGTCSRNNRTCGFKWGLETRTRQIVKKPVKDTILCPTIAESRRCKMTMRHCPGGKRTPKAKEKRNKKKKRKLIERAQEQHSVFLATDRANQ
Question: Which “Ovarian follicle development (morphological analyses)” value (ovaries from day 10 mice [2]; 4 days culture) does the source give for B1 here?
Answer: promotion of ovarian follicle development

Question: And the “Ovarian weight of explants, R-spondin2 and FSH added together” value (ovaries from day 10 mice [2]; 4 days culture, combined with FSH)?
Answer: further increases

Question: And the “Ovarian weight of explants” value (ovaries from day 10 mice [2]; day 10 ovaries, 4 days culture)?
Answer: increased ovarian weight in a dose-dependent manner

Question: And the “Percentage of primordial and degenerated follicles” value (ovaries from day 10 mice [2]; [5])?
Answer: negligible changes

Question: What about the “Ratio of primary and percentage of secondary follicles” value (ovaries from day 10 mice [2]; [5]) of the same molecule?
Answer: decreased the ratio of primary follicles accompanied by increases in the percentage of secondary follicles

Question: What about the “MTS activity (viable cell number)” value [3] of the same molecule?
Answer: stimulated MTS activity in a dose-dependent manner

Question: And the “MTS activity with both Wnt3a and R-Spondin2” value ([3]; combined with Wnt3a)?
Answer: further increases in MTS activity

Question: What about the “TCF-luciferase activity in the presence of both Wnt3a and R-spondin2” value ([4]; 18 h, combined with Wnt3a) of the same molecule?
Answer: synergistic increases

Question: What about the TCF-luciferase activity ([4]; 18 h) of the same molecule?
Answer: minimal stimulation

B2: Wnt3a: Wnt ligand (protein, UniProt P56704 19-352, looked up)
Protein Wnt-3a: SYPIWWSLAVGPQYSSLGSQPILCASIPGLVPKQLRFCRNYVEIMPSVAEGIKIGIQECQHQFRGRRWNCTTVHDSLAIFGPVLDKATRESAFVHAIASAGVAFAVTRSCAEGTAAICGCSSRHQGSPGKGWKWGGCSEDIEFGGMVSREFADARENRPDARSAMNRHNNEAGRQAIASHMHLKCKCHGLSGSCEVKTCWWSQPDFRAIGDFLKDKYDSASEMVVEKHRESRGWVETLRPRYTYFKVPTERDLVYYEASPNFCEPNPETGSFGTRDRTCNVSSHGIDGCDLLCCGRGHNARAERRREKCRCVFHWCCYVSCQECTRVYDVHTCK
Question: What does the source list for B2?
Answer: MTS activity (viable cell number) [3]: stimulated MTS activity in a dose-dependent manner; TCF-luciferase activity ([4]; 18 h): minimal stimulation

B3: R-spondin1: secreted glycoprotein of the R-spondin family that synergizes with Wnts to activate β-catenin-dependent signaling (protein, UniProt Q2MKA7 21-263, looked up)
R-spondin-1: SRGIKGKRQRRISAEGSQACAKGCELCSEVNGCLKCSPKLFILLERNDIRQVGVCLPSCPPGYFDARNPDMNKCIKCKIEHCEACFSHNFCTKCKEGLYLHKGRCYPACPEGSSAANGTMECSSPAQCEMSEWSPWGPCSKKQQLCGFRRGSEERTRRVLHAPVGDHAACSDTKETRRCTVRRVPCPEGQKRRKGGQGRRENANRNLARKESKEAGAGSRRRKGQQQQQQQGTVGPLTSAGPA
Question: Which “Intestinal stem cell proliferation and intestinal growth” value (intestinal stem cell) does the source give for B3 here?
Answer: stimulate intestinal stem cell proliferation and intestinal growth

B4: DKK1: Dickkopf1, a Wnt signaling antagonist (protein, UniProt O94907 32-266, looked up)
Dickkopf-related protein 1: TLNSVLNSNAIKNLPPPLGGAAGHPGSAVSAAPGILYPGGNKYQTIDNYQPYPCAEDEECGTDEYCASPTRGGDAGVQICLACRKRRKRCMRHAMCCPGNYCKNGICVSSDQNHFRGEIEETITESFGNDHSTLDGYSRRTTLSSKMYHTKGQEGSVCLRSSDCASGLCCARHFWSKICKPVLKEGQVCTKHRRKGSHGLEIFQRCYCGEGLSCRIQKDHHQASNSSRLHTCQRH
Question: Which “Effect on stimulatory effects of FSH on ovarian growth” value (ovaries from day 10 mice [2]; explant cultures) does the source give for B4 here?
Answer: not blocked

Question: What about the “Effect on R-spondin2- and Wnt3a-stimulated TCF-luciferase activity” value [4] of the same molecule?
Answer: blocked the stimulatory effects
